# Source: patent publication US5691196, “Recombinant nucleic acid containing a response element” (American Cyanamid Company)
# T1: RARalpha (UniProt P10276 P10276:1-462)
# T1 sequence: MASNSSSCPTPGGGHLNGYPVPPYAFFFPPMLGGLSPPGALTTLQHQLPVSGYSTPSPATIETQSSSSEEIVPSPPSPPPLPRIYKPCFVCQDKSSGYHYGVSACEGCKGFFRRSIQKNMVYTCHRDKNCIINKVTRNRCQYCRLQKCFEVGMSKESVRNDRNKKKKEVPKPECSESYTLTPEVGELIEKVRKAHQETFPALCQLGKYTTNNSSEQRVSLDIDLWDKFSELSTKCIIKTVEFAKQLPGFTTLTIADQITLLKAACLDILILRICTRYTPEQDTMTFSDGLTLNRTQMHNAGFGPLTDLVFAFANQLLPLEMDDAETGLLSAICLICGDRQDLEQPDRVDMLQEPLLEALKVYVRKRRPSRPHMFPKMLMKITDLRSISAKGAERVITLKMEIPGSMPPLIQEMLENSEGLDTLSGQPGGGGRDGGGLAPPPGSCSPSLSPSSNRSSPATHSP
# B1: M10 (dsDNA)
# DNA 1: ACTGACCTGTGACCCCTG
# DNA 2: CAGGGGTCACAGGTCAGT
# B2: M4 (dsDNA)
# DNA 1: ACTGACCCCTTGACCCCTG
# DNA 2: CAGGGGTCAAGGGGTCAGT
# B3: apoAI site A (oligo A) (dsDNA)
# DNA 1: ACTGAACCCTTGACCCCTGCCCT
# DNA 2: AGGGCAGGGGTCAAGGGTTCAGT
# B4: M3 (dsDNA)
# DNA 1: ACTGAACTTTTGACCCCTG
# DNA 2: CAGGGGTCAAAAGTTCAGT
# B5: M2 (dsDNA)
# DNA 1: ACTGAACTGATGACCCCTG
# DNA 2: CAGGGGTCATCAGTTCAGT
# B6: M9 (dsDNA)
# DNA 1: ACTGAACTGTGACCCCTG
# DNA 2: CAGGGGTCACAGTTCAGT
# B7: site A5' (dsDNA)
# DNA 1: ACTGAACCCTTGACCCCTG
# DNA 2: CAGGGGTCAAGGGTTCAGT
# Columns and labels:
# [1] = target: T2, RXRalpha (Homo sapiens, UniProt P19793 P19793:1-462); test: cell_activity; RA vs no RA; settings: tags: pMT2-RXRalpha, CV-1 cells; 5' GATC overhang
# T2 sequence (P19793 whole entry, one chain of several): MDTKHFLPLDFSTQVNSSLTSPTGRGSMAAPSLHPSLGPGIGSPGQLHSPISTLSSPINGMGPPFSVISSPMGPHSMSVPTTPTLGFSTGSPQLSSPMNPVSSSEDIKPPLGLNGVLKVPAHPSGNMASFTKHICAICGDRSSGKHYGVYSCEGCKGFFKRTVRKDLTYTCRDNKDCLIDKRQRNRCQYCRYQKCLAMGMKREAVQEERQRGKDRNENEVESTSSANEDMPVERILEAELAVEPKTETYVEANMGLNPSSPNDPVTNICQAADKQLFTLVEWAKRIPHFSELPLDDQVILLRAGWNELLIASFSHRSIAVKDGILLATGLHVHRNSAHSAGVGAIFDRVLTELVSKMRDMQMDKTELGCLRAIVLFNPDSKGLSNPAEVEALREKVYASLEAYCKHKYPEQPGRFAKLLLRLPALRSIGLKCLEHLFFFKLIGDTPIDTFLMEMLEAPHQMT
# [2] = target: T2, RXRalpha; test: cell_activity; CAT reporter, RA vs no RA; settings: tags: pMT2-RXRalpha, CV-1 cells; 5' GATC overhang
# Description: (§1) Maintenance of CV-1 cells, transfection of plasmid DNA into these cells, normalization for plasmid DNA uptake by the cells and CAT and β-galactosidase (β-gal) assays are performed as previously described in the literature. The transfection mixtures contained 5 μg of each reporter plasmid, 5 μg of the β-gal expression vector pRSV-β-gal, the amounts of the pMT2-RXRα, pMT2-RARα, pMT2-RARβ, pMT2-ARP-1 and pMT2-Ear3-COUP-TF expression vectors and the appropriate amounts of the previously described control vector pMT2-UT to bring the final amount of the plasmid DNA in the transfection mixtures to a total of 17 μg. The transfection mixtures containing the expression vectors pMT2-HNF4 or pSG5-AR, 1 μg of the β-gal expression vector pCMV-β-gal instead of the vector pRSV-β-gal is used and the final amount of plasmid DNA in the transfection mixture is adjusted to a total of 13 μg as described above.
# (§2) The CAT activity in extracts from these cells is normalized for DNA uptake by the cells by conventional methods, and expressed relative to the normalized CAT activity of the construct -41ALCAT in the absence of cotransfected receptor expression vectors or any ligands (Relative CAT Activity). The data represent the average of at least two independent experiments.
# [3] = target: T2, RXRalpha; test: cell_activity; yeast lacZ reporter, two copies, 1e-6 M 9-cis-RA; 4-fold with all-trans-RA; settings: protein: extract; tags: ubiquitin-fusion expression in yeast (YEpRXRalpha); label: 32P
# [4] = target: T1, RARalpha; test: cell_activity; two copies of M3; RA; 500 ng RARalpha vector reverses ARP-1 repression and exceeds no-ARP-1 level; settings: tags: pMT2-RARalpha, CV-1 cells; 5' GATC overhang
# Description: A reporter construct similar to [A5']-41ALCAT but containing two copies of a mutated version of site A5' in which the sequence CCT in the spacer between the two repeats in the site A5' has been changed to TTT (M3) is tested for its responsiveness to different amounts (indicated) of the RXRα or RARα expression vectors in the presence of RA and the indicated amounts of the ARP-1 expression vector by transient transfection assays into CV-1 cells as described in FIG. 8.
# [5] = target: T2, RXRalpha; test: cell_activity; RA vs no RA; settings: tags: pMT2-RXRalpha, CV-1 cells; 5' GATC overhang; remark: listed apart in the source
# Description: as §1, §2
binder,measurement,setting,value
B1,activity,[1],< 3 fold
B2,activity,[2],7 fold
B3,activity,[3],14 fold
B4,activity,[4],> 2 fold
B5,activity,[5],< 3 fold
B6,activity,[1],< 3 fold
B7,activity,[2],4.8 fold
